Laboratory results as given in PMC3551606.

target: Drosophila cathepsin B (Drosophila)

**Q.** crammer F16A (natural protein) was tested. Which reduction of CTSB activity at 3 µM crammer variant (text's number; differs from 100 minus the table's cell) did it give?
**A.** 64%

target: Drosophila cathepsin B (Drosophila); remark: another data set of the same source

**Q.** How did the CTSB activity % (residual activity on ZFR-AMC with 3 µM crammer variant, 75 nM CTSB, pH 5.0, 20°C) turn out when crammer D6A (natural protein) was run?
**A.** 21.1%

**Q.** With crammer E8A (natural protein) as the substance, how does the CTSB activity % (residual activity on ZFR-AMC with 3 µM crammer variant, 75 nM CTSB, pH 5.0, 20°C) read?
**A.** 77.7%

**Q.** crammer E24A (natural protein) was tested. Which CTSB activity % (residual activity on ZFR-AMC with 3 µM crammer variant, 75 nM CTSB, pH 5.0, 20°C) did it give?
**A.** 19%

**Q.** How did the CTSB activity % (residual activity on ZFR-AMC with 3 µM crammer variant, 75 nM CTSB, pH 5.0, 20°C) turn out when crammer E67A (natural protein) was run?
**A.** 54.1%

**Q.** For crammer K36A (natural protein), which CTSB activity % (residual activity on ZFR-AMC with 3 µM crammer variant, 75 nM CTSB, pH 5.0, 20°C) is on record?
**A.** 29%

**Q.** crammer R28A (natural protein) was tested. Which CTSB activity % (residual activity on ZFR-AMC with 3 µM crammer variant, 75 nM CTSB, pH 5.0, 20°C) did it give?
**A.** 89%

**Q.** How did the CTSB activity % (residual activity on ZFR-AMC with 3 µM crammer variant, 75 nM CTSB, pH 5.0, 20°C) turn out when crammer R29A (natural protein) was run?
**A.** 64%

target: Drosophila cathepsin B (Drosophila); remark: another data set of the same source

**Q.** For “Drosophila melanogaster crammer, wild type (natural protein)”, which CTSB activity % (residual activity on ZFR-AMC with 3 µM crammer variant, 75 nM CTSB, pH 5.0, 20°C) is on record?
**A.** 14.7%

**Q.** crammer F16A (natural protein) was tested. Which CTSB activity % (residual activity on ZFR-AMC with 3 µM crammer variant, 75 nM CTSB, pH 5.0, 20°C) did it give?
**A.** 34.6%

**Q.** For crammer F46A (natural protein), which CTSB activity % (residual activity on ZFR-AMC with 3 µM crammer variant, 75 nM CTSB, pH 5.0, 20°C) is on record?
**A.** 41%

**Q.** With crammer W9A (natural protein) as the substance, how does the CTSB activity % (residual activity on ZFR-AMC with 3 µM crammer variant, 75 nM CTSB, pH 5.0, 20°C) read?
**A.** 87.8%

**Q.** For crammer W53A (natural protein), which CTSB activity % (residual activity on ZFR-AMC with 3 µM crammer variant, 75 nM CTSB, pH 5.0, 20°C) is on record?
**A.** 85.2%

**Q.** Which CTSB activity % (residual activity on ZFR-AMC with 3 µM crammer variant, 75 nM CTSB, pH 5.0, 20°C) does the source give for crammer Y12A (natural protein) here?
**A.** 63%

**Q.** With crammer Y20A (natural protein) as the substance, how does the CTSB activity % (residual activity on ZFR-AMC with 3 µM crammer variant, 75 nM CTSB, pH 5.0, 20°C) read?
**A.** 47.8%

**Q.** How did the CTSB activity % (residual activity on ZFR-AMC with 3 µM crammer variant, 75 nM CTSB, pH 5.0, 20°C) turn out when crammer Y32A (natural protein) was run?
**A.** 67.6%
